The target of assay [1] is T1, N-terminally His6-tagged cMyc-tagged human CCR1 (human, UniProt P32246 1-355).
T1 sequence (looked up): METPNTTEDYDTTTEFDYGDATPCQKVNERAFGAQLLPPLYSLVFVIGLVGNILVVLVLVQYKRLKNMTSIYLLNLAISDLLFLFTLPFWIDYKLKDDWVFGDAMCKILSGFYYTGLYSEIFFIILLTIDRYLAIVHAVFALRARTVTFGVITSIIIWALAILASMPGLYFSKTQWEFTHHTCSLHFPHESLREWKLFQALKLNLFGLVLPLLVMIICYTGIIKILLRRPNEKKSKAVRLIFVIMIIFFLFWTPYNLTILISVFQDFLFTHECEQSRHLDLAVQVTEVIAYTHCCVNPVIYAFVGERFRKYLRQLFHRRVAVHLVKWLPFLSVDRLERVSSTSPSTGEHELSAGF
The assay is described as follows: cell-based or functional assay.

Assay [2] concerns the target T1, N-terminally His6-tagged cMyc-tagged …. The assay is described as follows: radioligand binding; competitive displacement of 50 pM 125I-CCL3 from membranes of Flp-In T-REx 293 cells expressing CCR1; 2 h at 37 °C; two sets of experiments (Table 1, Table 3). The settings on record: one partner purified.
Assay [3] has the same target. The assay is described as follows: cell-based or functional assay. This is another data set of the same source.
The target is the same in assay [4]. In words: radioligand binding; competitive displacement of 50 pM 125I-CCL3 from membranes of Flp-In T-REx 293 cells expressing CCR1; 2 h at 37 °C; two sets of experiments (Table 1, Table 3). The settings on record: one partner purified. The source holds these as a separate data set.

In general, IC50 refers to the concentration needed to halve the response being measured. Low values mean higher potency, high ones lower potency.

B1: CCL7 (ligand)
chain: not shown
notes: CCL7 (MCP-3), human, wild type; N-terminal region of ten residues before the CC motif; also called monocyte chemoattractant protein-3; MCP-3; not shown: His6, N-terminal, cleaved
Regarding B1, in assay [1], the “Gαi2 activation (BRET), EC50” value was determined as 26.4 nM and the “Gαi2 activation (BRET), pEC50” value was 7.6 -log M. In assay [2], the IC50 worked out at 0.33 nM and the pIC50 was 9.5 -log M. Further, in assay [3], the “ERK1/2 phosphorylation, EC50” value is 9.6 nM; the “ERK1/2 phosphorylation, pEC50” value is 8 -log M; the “G protein activation (Gαi1, BRET), EC50” value worked out at 14 nM; the “G protein activation (Gαi1, BRET), pEC50” value was 7.9 -log M. Besides, in assay [3], the “inhibition of forskolin-induced cAMP production, EC50” value was determined as 9.5 nM and the “inhibition of forskolin-induced cAMP production, pEC50” value is 8 -log M. Moreover, in assay [4], the IC50 came out at 1.2 nM and the pIC50 is 8.9 -log M.

B2: CCL8 (Lys-46 allele, Pro-8→Ala) (ligand, human, UniProt P80075 24-99, looked up)
chain: QPDSVSIAITCCFNVINRKIPIQRLESYTRITNIQCPKEAVIFKTKRGKEVCADPKERWVRDSMKHLDQIFQNLKP
notes: CCL8 (MCP-2), human, Lys-46 allele, with Pro-8→Ala to make the protein monomeric; N-terminal region of ten residues before the CC motif; also called MCP-2; not shown: His6, N-terminal, cleaved
In the case of B2, in assay [2], the IC50 was determined as 2.3 nM and the pIC50 was 8.6 -log M. Besides, in assay [3], the “ERK1/2 phosphorylation, EC50” value is 65.5 nM; the “ERK1/2 phosphorylation, pEC50” value was 7.2 -log M; the “G protein activation (Gαi1, BRET), EC50” value came out at 30 nM; the “G protein activation (Gαi1, BRET), pEC50” value was 7.5 -log M. Further, in assay [3], the “inhibition of forskolin-induced cAMP production, EC50” value turned out to be 48 nM and the “inhibition of forskolin-induced cAMP production, pEC50” value is 7.3 -log M.

The values are drawn from PMC6566870, “Influence of Chemokine N-Terminal Modification on Biased Agonism at the Chemokine Receptor CCR1” (International Journal of Molecular Sciences, 2019).
